The values that follow come from article PMC5435868, “Crystal structure of U2 snRNP SF3b components: Hsh49p in complex with Cus1p-binding domain” (RNA, 2017).

Data set [1] deals with T1, Hsh49p (Saccharomyces cerevisiae) (UniProt Q99181).
T1 sequence: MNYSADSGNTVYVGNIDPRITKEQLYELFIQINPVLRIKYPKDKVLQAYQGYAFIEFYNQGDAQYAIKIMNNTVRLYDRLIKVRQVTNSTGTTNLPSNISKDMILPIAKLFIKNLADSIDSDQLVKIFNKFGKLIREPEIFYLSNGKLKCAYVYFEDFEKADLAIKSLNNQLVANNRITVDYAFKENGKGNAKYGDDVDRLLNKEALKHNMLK
Briefly: fluorescence anisotropy. The conditions noted are these: 20 mM K-Hepes pH 7.5, 125 mM KCl, 1 mM EDTA, 5 mM DTT, 0.01% Igepal, E. coli tRNA (100 ng FA, 500 ng EMSA), 22°C 20 min; EMSA gels at 4°C. Background: Fluorescence polarisation rises when a labelled molecule tumbles more slowly, as on binding a larger partner.

Data set [2] deals with T2, Hsh49p Tyr52Ala-Phe54Ala (RRM1 mutant);Cus1(290-350)p (Saccharomyces cerevisiae;Saccharomyces …, UniProt Q99181;Q02554 1-213;290-350, Y52A;F54A|).
T2 sequence 1: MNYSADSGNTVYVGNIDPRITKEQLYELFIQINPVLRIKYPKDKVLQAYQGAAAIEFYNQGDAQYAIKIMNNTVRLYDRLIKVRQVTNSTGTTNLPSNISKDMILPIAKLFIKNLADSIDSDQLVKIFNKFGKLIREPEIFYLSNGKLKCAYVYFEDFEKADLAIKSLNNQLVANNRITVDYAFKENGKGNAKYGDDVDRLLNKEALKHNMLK
T2 sequence 2: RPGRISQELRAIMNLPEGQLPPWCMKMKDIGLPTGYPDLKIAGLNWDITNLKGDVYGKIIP
Briefly: fluorescence anisotropy; 20 mM K-Hepes pH 7.5, 125 mM KCl, 1 mM EDTA, 5 mM DTT, 0.01% Igepal, E. coli tRNA (100 ng FA, 500 ng EMSA), 22°C 20 min; EMSA gels at 4°C. The note with it: protein: recombinant;recombinant; tags: His-TEV tag (cleaved);none stated; coexpressed; copies: 1;1; label: 3' fluorescein; hairpin with 5' single strand.

In a further data set the target is T3, Hsh49p (Saccharomyces cerevisiae, UniProt Q99181 1-213).
T3 sequence: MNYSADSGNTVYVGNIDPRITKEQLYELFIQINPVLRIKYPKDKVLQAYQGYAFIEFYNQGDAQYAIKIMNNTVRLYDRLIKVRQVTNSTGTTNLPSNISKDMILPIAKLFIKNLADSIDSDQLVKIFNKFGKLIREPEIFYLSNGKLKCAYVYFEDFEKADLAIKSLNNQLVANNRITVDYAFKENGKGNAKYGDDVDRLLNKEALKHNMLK
Briefly: EMSA; up to 1.5 µM protein, E. coli tRNA; 20 mM K-Hepes pH 7.5, 125 mM KCl, 1 mM EDTA, 5 mM DTT, 0.01% Igepal, E. coli tRNA (100 ng FA, 500 ng EMSA), 22°C 20 min; EMSA gels at 4°C. The note with it: protein: recombinant, tags: His-TEV tag (cleaved), label: 3' fluorescein.

The target in data set [3] is T4, Hsh49p;Cus1(290-368)p (Saccharomyces cerevisiae;Saccharomyces …, UniProt Q99181;Q02554 1-213;290-368, |).
T4 sequence 1: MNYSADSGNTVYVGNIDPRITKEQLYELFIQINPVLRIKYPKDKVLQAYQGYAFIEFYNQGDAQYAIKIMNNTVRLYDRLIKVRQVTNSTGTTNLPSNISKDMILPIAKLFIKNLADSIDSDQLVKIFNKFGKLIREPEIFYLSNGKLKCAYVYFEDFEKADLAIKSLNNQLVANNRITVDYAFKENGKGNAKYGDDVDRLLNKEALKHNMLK
T4 sequence 2: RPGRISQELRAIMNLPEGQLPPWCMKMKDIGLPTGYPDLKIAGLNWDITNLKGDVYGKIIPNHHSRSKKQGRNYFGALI
Briefly: fluorescence anisotropy; similar to RRM1-Cus1(290-368)p; 20 mM K-Hepes pH 7.5, 125 mM KCl, 1 mM EDTA, 5 mM DTT, 0.01% Igepal, E. coli tRNA (100 ng FA, 500 ng EMSA), 22°C 20 min; EMSA gels at 4°C. The note with it: protein: recombinant;recombinant; tags: His-TEV tag (cleaved);none stated; coexpressed; copies: 1;1; label: 3' fluorescein; hairpin with 5' single strand.

In data set [4] the target is T5, Hsh49p Tyr152Ala-Tyr154Ala (RRM2 mutant);Cus1(290-350)p (Saccharomyces cerevisiae;Saccharomyces …, UniProt Q99181;Q02554 1-213;290-350, Y152A;Y154A|).
T5 sequence 1: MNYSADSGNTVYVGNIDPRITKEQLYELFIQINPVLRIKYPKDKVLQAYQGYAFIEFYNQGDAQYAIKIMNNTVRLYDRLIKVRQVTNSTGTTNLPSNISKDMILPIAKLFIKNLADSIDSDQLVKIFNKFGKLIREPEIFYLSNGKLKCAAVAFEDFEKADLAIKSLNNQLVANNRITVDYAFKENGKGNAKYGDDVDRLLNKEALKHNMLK
T5 sequence 2: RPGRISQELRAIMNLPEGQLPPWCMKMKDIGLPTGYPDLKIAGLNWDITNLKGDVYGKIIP
Briefly: fluorescence anisotropy; mutation has no effect; 20 mM K-Hepes pH 7.5, 125 mM KCl, 1 mM EDTA, 5 mM DTT, 0.01% Igepal, E. coli tRNA (100 ng FA, 500 ng EMSA), 22°C 20 min; EMSA gels at 4°C. The conditions noted are these: protein: recombinant;recombinant; tags: His-TEV tag (cleaved);none stated; coexpressed; copies: 1;1; label: 3' fluorescein; hairpin with 5' single strand.

Data set [5] has as its target T4, Hsh49p;Cus1(290-368)p. Briefly: EMSA; up to 1.5 µM protein, E. coli tRNA; 20 mM K-Hepes pH 7.5, 125 mM KCl, 1 mM EDTA, 5 mM DTT, 0.01% Igepal, E. coli tRNA (100 ng FA, 500 ng EMSA), 22°C 20 min; EMSA gels at 4°C. The conditions noted are these: protein: recombinant;recombinant, tags: His-TEV tag (cleaved);none stated, coexpressed, copies: 1;1, label: 3' fluorescein. (In general: In EMSA bound probe runs differently from free probe, usually more slowly.)

The target in the next data set is T6, Hsh49p RRM2 (Saccharomyces cerevisiae, UniProt Q99181 108-185).
T6 sequence: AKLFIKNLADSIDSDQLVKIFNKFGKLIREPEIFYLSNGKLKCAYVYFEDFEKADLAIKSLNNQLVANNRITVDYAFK
Briefly: fluorescence anisotropy; 20 mM K-Hepes pH 7.5, 125 mM KCl, 1 mM EDTA, 5 mM DTT, 0.01% Igepal, E. coli tRNA (100 ng FA, 500 ng EMSA), 22°C 20 min; EMSA gels at 4°C. The note with it: protein: recombinant; tags: His-TEV tag (cleaved); label: 3' fluorescein; hairpin.

Another data set deals with T7, HisHsh49p (S. cerevisiae, UniProt Q99181 1-213).
T7 construct: Hsh49p, S. cerevisiae; Held on Ni-NTA resin by its His tag after the trypsin digest; also called His-tagged Hsh49p; source: E. coli, coexpressed with Cus1(121-392)p, purified as complex; not shown: His6, N-terminal, kept
T7 sequence (looked up): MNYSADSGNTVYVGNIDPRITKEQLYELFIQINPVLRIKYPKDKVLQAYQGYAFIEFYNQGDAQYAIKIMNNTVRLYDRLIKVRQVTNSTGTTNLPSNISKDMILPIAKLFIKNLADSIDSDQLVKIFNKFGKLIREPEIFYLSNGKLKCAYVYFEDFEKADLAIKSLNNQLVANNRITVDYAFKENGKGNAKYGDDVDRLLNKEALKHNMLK
Briefly: pull-down; purified HisHsh49p–Cus1 complex (40 µM) cut with trypsin (10 µg/mL, 10 min, 22°C), His-tagged Hsh49p held on Ni-NTA resin; fragments told by N-terminal sequencing and MALDI-TOF. The note with it: both partners purified.

Data set [6] addresses T4, Hsh49p;Cus1(290-368)p. Briefly: fluorescence anisotropy; 20 mM K-Hepes pH 7.5, 125 mM KCl, 1 mM EDTA, 5 mM DTT, 0.01% Igepal, E. coli tRNA (100 ng FA, 500 ng EMSA), 22°C 20 min; EMSA gels at 4°C. The conditions noted are these: protein: recombinant;recombinant; tags: His-TEV tag (cleaved);none stated; coexpressed; copies: 1;1; label: 3' fluorescein; hairpin with single-stranded flanks.

Data set [7] addresses T4, Hsh49p;Cus1(290-368)p. Briefly: fluorescence anisotropy; pseudouridines have no large effect; 20 mM K-Hepes pH 7.5, 125 mM KCl, 1 mM EDTA, 5 mM DTT, 0.01% Igepal, E. coli tRNA (100 ng FA, 500 ng EMSA), 22°C 20 min; EMSA gels at 4°C. The note with it: protein: recombinant;recombinant; tags: His-TEV tag (cleaved);none stated; coexpressed; copies: 1;1; label: 3' fluorescein; hairpin with single-stranded flanks.

As for “ACGAAUCUCUUUGCCUUUUGGCUUAGAUCAAGUGUAGUAUCUGUUCU [5'SLIBPRS]”, the binding signal (fold weaker than Hsh49p-Cus1(290-368)p) in [1] came to 10.

On to ACGAAUCUCUUUGCCUUUUGGCUUAGA (structured_RNA) [5'SLI], for which the binding signal in data set [2] is ~10 fold lower affinity than wild type. The binding result with Hsh49p (hairpin with 5' single strand) is “no binding”; in the data set with Hsh49p;Cus1(290-368)p [3], “binds”; in data set [4], “binds”.

Turning to UGACCUCAAUGAGGCUCA (structured_RNA) [SLIIb], the binding result in the data set with Hsh49p;Cus1(290-368)p [5] (hairpin), in the data set with Hsh49p (hairpin) and with Hsh49p RRM2 was “no binding” in each case.

B1: Cus1p fragment comprising residues 285-355 (domain or fragment, S. cerevisiae, UniProt Q02554 285-355, looked up)
chain: MVDHKRPGRISQELRAIMNLPEGQLPPWCMKMKDIGLPTGYPDLKIAGLNWDITNLKGDVYGKIIPNHHSR
notes: also called digested Cus1p fragment; source: trypsin digest of the purified HisHsh49p-Cus1 complex made in E. coli
As to B1, in the data set with HisHsh49p, the binding result was “binds”.

As to ACGAAUCUCUUUGCCUUUUGGCUUAGAUCAAGUGUAGUAUCUGUUCU (structured_RNA) [5'SLIBPRS], in the data set with Hsh49p;Cus1(290-368)p [6], the binding signal was ~10 fold stronger than Hsh49p alone.

In the case of ACGAAUCUCUUUGCCUUUUGGCUUAGAUCAAGUGUAGUAUCUGUUCU (structured_RNA, pseudouridines around the BPRS (positions in figure)) [5'SLIBPRS-pseu], in the data set with Hsh49p;Cus1(290-368)p [7], the binding result is on record as “binds”.

As to UUUCAGUGUAACAACUGAAA (structured_RNA) [SLIIa], the binding result with Hsh49p;Cus1(290-368)p [5] (hairpin), with Hsh49p (hairpin) and in the data set with Hsh49p RRM2 was “no binding” in each case.

Regarding UCUUUGCCUUUUGGCUUAGA (structured_RNA) [SLI], the binding result with Hsh49p;Cus1(290-368)p [5] (hairpin) and in the data set with Hsh49p (hairpin) was “no binding” in each case.

As for UCAAGUGUAGUAUCUGUUCU (ssRNA) [BPRS], the binding result with Hsh49p;Cus1(290-368)p [5] and with Hsh49p was “no binding” throughout.
